The target in the assay is histone H4 (X. laevis), as in the H3K4Cme3 nucleosome (X. laevis, UniProt P62799 1-103). Briefly: cryo-EM structure.

Here are results for one molecule from publication PMC12126155 (Molecular cell, 2025).

B1: H. sapiens Chromodomain Helicase DNA Binding Protein 1 (CHD1 residues 1-1327 lacking the CHCT domain) (enzyme)
chain: MNGHSDEESVRNSSGESSQSDDDSGSASGSGSGSSSGSSSDGSSSQSGSSDSDSGSESGSQSESESDTSRENKVQAKPPKVDGAEFWKSSPSILAVQRSAILKKQQQQQQQQQHQASSNSGSEEDSSSSEDSDDSSSEVKRKKHKDEDWQMSGSGSPSQSGSDSESEEEREKSSCDETESDYEPKNKVKSRKPQNRSKSKNGKKILGQKKRQIDSSEEDDDEEDYDNDKRSSRRQATVNVSYKEDEEMKTDSDDLLEVCGEDVPQPEEEEFETIERFMDCRIGRKGATGATTTIYAVEADGDPNAGFEKNKEPGEIQYLIKWKGWSHIHNTWETEETLKQQNVRGMKKLDNYKKKDQETKRWLKNASPEDVEYYNCQQELTDDLHKQYQIVERIIAHSNQKSAAGYPDYYCKWQGLPYSECSWEDGALISKKFQACIDEYFSRNQSKTTPFKDCKVLKQRPRFVALKKQPSYIGGHEGLELRDYQLNGLNWLAHSWCKGNSCILADEMGLGKTIQTISFLNYLFHEHQLYGPFLLVVPLSTLTSWQREIQTWASQMNAVVYLGDINSRNMIRTHEWTHHQTKRLKFNILLTTYEILLKDKAFLGGLNWAFIGVDEAHRLKNDDSLLYKTLIDFKSNHRLLITGTPLQNSLKELWSLLHFIMPEKFSSWEDFEEEHGKGREYGYASLHKELEPFLLRRVKKDVEKSLPAKVEQILRMEMSALQKQYYKWILTRNYKALSKGSKGSTSGFLNIMMELKKCCNHCYLIKPPDNNEFYNKQEALQHLIRSSGKLILLDKLLIRLRERGNRVLIFSQMVRMLDILAEYLKYRQFPFQRLDGSIKGELRKQALDHFNAEGSEDFCFLLSTRAGGLGINLASADTVVIFDSDWNPQNDLQAQARAHRIGQKKQVNIYRLVTKGSVEEDILERAKKKMVLDHLVIQRMDTTGKTVLHTGSAPSSSTPFNKEELSAILKFGAEELFKEPEGEEQEPQEMDIDEILKRAETHENEPGPLTVGDELLSQFKVANFSNMDEDDIELEPERNSKNWEEIIPEDQRRRLEEEERQKELEEIYMLPRMRNCAKQISFNGSEGRRSRSRRYSGSDSDSISEGKRPKKRGRPRTIPRENIKGFSDAEIRRFIKSYKKFGGPLERLDAIARDAELVDKSETDLRRLGELVHNGCIKALKDSSSGTERTGGRLGKVKGPTFRISGVQVNAKLVISHEEELIPLHKSIPSDPEERKQYTIPCHTKAAHFDIDWGKEDDSNLLIGIYEYGYGSWEMIKMDPDLSLTHKILPDDPDKKPQAKQLQTRADYLIKLLSRDLAKKEALSGAG
B1: the binding result is listed as “binds”.
